Results from the Human Domainome abundance scans (Beltran et al. 2025).

B1: Poly(rC)-binding protein 1, residues 278 to 350; numbered along this chain, Q15365 (parent)
chain: TQTTHELTIPNNLIGCIIGRQGANINEIRQMSGAQIKIANPVEGSSGRQVTITGSAASISLAQYLINARLSSE

Variants of: B1
Assay: abundance fitness (aPCA) (normalised: wild type 0, dead -1); higher = more abundant; growth selection in yeast, the domain comes from the species named
Conditions: Homo sapiens

Abundance fitness: each site, then its substitutions
I36: Q -0.829; R -0.835; F -0.5; L -0.406; M -0.648; W -1.04; P -1.01; E -0.986; D -0.852; C -0.276; H 0.062; N -0.689; G -0.782; A -0.97; K -1.14; Y -0.767
G47: W -0.073; I -0.379; L 0; T 0.008; M 0.043; P -0.491; V 0.017; N 0.047; D 0.032; R -0.062; S 0.023; C -0.097; F -0.116; Q 0.054; Y -0.008; K -0.01; H -0.129; E 0.067; A 0.013
V42: D -0.028; K -0.017; P -0.192; N -0.272; T -0.1; I -0.007; M -0.229; Q -0.159; R -0.012; S -0.028; H -0.186; L -0.151; Y -0.141; G -0.13; E -0.011; W -0.525; C -0.086
Q30: R 0.099; A 0.001; D -0.502; M -0.137; N 0.147; P -0.809; L -0.163; T 0.064; C -0.341; S 0.023; E 0.013; W -0.334; K 0.172; F -0.094; G -0.168
Q35: P -0.641; Y -0.231; M -0.09; W -0.21; G -0.13; C -0.15; E -0.058; R 0.023; L -0.15; A -0.11; D 0.001; V -0.119; T 0.017; I -0.104; F -0.233; N 0.088; S -0.012; H 0.138
G44: F -0.182; E -0.278; C -0.19; V -0.353; N -0.12; I -0.732; R -0.212; W -0.424; K -0.229; Q -0.308; M -0.343; H -0.333; P -0.211; Y 0.081; D -0.087; T -0.374; S -0.235; A -0.213; L -0.401
I28: Y -0.731; V -0.257; S -1.04; W -0.408
A34: E -1.24; C -0.462; W -0.759; G -0.597; F -0.447; S -0.122; R -0.721; L -1.18; Q -0.641; V -0.792; K -0.943; T 0.023; P -0.372
E43: I 0.01; G -0.115; M 0.05; F -0.179; C -0.168; A -0.249; Y -0.051; S -0.02; Q -0.258; R -0.061; T -0.119; N -0.024; W -0.18; H -0.021; L -0.039; V 0.073
G33: A -0.405; Q -0.204; H -0.618; F -0.927; R -0.324; T -0.575; N -0.439; C -0.652; P -1.04; W -0.414; K -0.362; E -0.541; L -0.61; Y -1.01; V -1.05; M -0.657; S -0.382; I -0.296
N40: R 0.016; K 0.02; Q 0.086; W -0.512; V -0.266; E 0.004; F -0.373; T -0.16; A -0.023; I -0.553; M -0.052; C -0.085
